Measured values reported in EP2363413A1 (YISSUM RESEARCH DEVELOPMENT COMPANY OF THE HEBREW …, dated 2011).

Legend:
[1] = molecular target: soluble CD28 (sCD28), human CD28 extracellular domain fused to His6-tagged human IgG1 Fc (human) (UniProt P10747); test: SPR, format not stated (sCD28 was among the immobilized ligands)
[2] = molecular target: staphylococcal enterotoxin B (SEB) (Staphylococcus aureus) (UniProt P01552); test: SPR (BIAcore 3000, 25°C), SEB immobilized on CM5 chip, sB7-2 injected
[3] = molecular target: T1, staphylococcal enterotoxin B (SEB) (Staphylococcus aureus, UniProt P01552 28-266); test: SPR (BIAcore 3000, 25°C), SEB immobilized on CM5 chip, soluble receptor injected
T1 sequence: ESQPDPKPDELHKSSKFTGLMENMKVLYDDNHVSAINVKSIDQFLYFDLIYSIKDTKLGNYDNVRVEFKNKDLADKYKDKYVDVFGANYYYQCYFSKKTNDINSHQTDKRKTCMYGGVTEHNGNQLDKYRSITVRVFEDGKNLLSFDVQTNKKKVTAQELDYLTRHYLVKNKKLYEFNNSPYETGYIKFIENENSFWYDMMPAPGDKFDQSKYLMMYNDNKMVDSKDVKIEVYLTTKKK

**Q.** For “anti-CD28 monoclonal antibody MAB342, clone 37407.111 (R&D Systems)”, which Kd [1] is on record?
**A.** 2 nM

**Q.** For “soluble B7-2 (sB7-2), human B7-2 extracellular domain fused to His6-tagged human IgG1 Fc (from UniProt P42081 20-239) (Fc fusion)”, which Kd [2] is on record?
**A.** 25 nM

B1: soluble ICOS (sICOS), human ICOS extracellular domain fused to His6-tagged human IgG1 Fc (Fc fusion)
chain (part 1 of 2): EINGSANYEMFIFHNGGVQILCKYPDIVQQFKMQLLKGGQILCDLTKTKGSGNTVSIKSLKFCHSQLSNNSVSFFLYNLDHSHANYYFCNLSIFDPPPFKVTLTGGYLHIYESQLCCQLKF
chain (part 2 of 2): HHHHHH
notes: range 21-141
**Q.** For B1, which Kd [3] is on record?
**A.** 21 nM
